Laboratory results: patent publication US20250339531A1, “DUX4 POLYPEPTIDES AND NUCLEIC ACIDS FOR TREATING INFLAMMATORY AND AUTOIMMUNE CONDITIONS” (Fred Hutchinson Cancer Center, priority 2021, published 2025)

B1: ENDOD1 (protein)
chain: RLVGEEEAGFGECDKFFYAGTPPAGLAADSHVKICQRAEGAERFATLYSTRDRIPVYSAFRAPRPAPGGAEQRWLVEPQIDDPNSNLEEAINEAEAITSVNSLGSKQALNTDYLDSDYQRGQLYPFSLSSDVQVATFTLTNSAPMTQSFQERWYVNLHSLMDRALTPQCGSGEDLYILTGTVPSDYRVKDKVAVPEFVWLAACCAVPGGGWAMGFVKHTRDSDIIEDVMVKDLQKLLPFNPQLFQNNCGETEQDTEKMKKILEVVNQIQDEERMVQSQKSSSPLSSTRSKRSTLLPPEASEGSSSFLGKLMGFIATPFIKLFQLIYYLVVAILKNIVYFLWCVTKQVINGIESCLYRLGSATISYFMAIGEELVSIPWKVLKVVAKVIRALLRILCCLLKAICRVLSIPVRVLVDVATFPVYTMGAIPIVCKDIALGLGGTVSLLFDTAFGTLGGLFQVVFSVCKRIGYKVTFDNSGEL
B2: CKAP4 (protein)
chain: MPSAKQRGSKGGHGAASPSEKGAHPSGGADDVAKKPPPAPQQPPPPPAPHPQQHPQQHPQNQAHGKGGHRGGGGGGGKSSSSSSASAAAAAAAASSSASCSRRLGRALNFLFYLALVAAAAFSGWCVHHVLEEVQQVRRSHQDFSRQREELGQGLQGVEQKVQSLQATFGTFESILRSSQHKQDLTEKAVKQGESEVSRISEVLQKLQNEILKDLSDGIHVVKDARERDFTSLENTVEERLTELTKSINDNIAIFTEVQKRSQKEINDMKAKVASLEESEGNKQDLKALKEAVKEIQTSAKSREWDMEALRSTLQTMESDIYTEVRELVSLKQEQQAFKEAADTERLALQALTEKLLRSEESVSRLPEEIRRLEEELRQLKSDSHGPKEDGGFRHSEAFEALQQKSQGLDSRLQHVEDGVLSMQVASARQTESLESLLSKSQEHEQRLAALQGRLEGLGSSEADQDGLASTVRSLGETQLVLYGDVEELKRSVGELPSTVESLQKVQEQVHTLLSQDQAQAARLPPQDFLDRLSSLDNLKASVSQVEADLKMLRTAVDSLVAYSVKIETNENNLESAKGLLDDLRNDLDRLFVKVEKIHEKV
B3: SERPINB3 (protein)
chain: MNSLSEANTKFMFDLFQQFRKSKENNIFYSPISITSALGMVLLGAKDNTAQQIKKVLHFDQVTENTTGKAATYHVDRSGNVHHQFQKLLTEFNKSTDAYELKIANKLFGEKTYLFLQEYLDAIKKFYQTSVESVDFANAPEESRKKINSWVESQTNEKIKNLIPEGNIGSNTTLVLVNAIYFKGQWEKKFNKEDTKEEKFWPNKNTYKSIQMMRQYTSFHFASLEDVQAKVLEIPYKGKDLSMIVLLPNEIDGLQKLEEKLTAEKLMEWTSLQNMRETRVDLHLPRFKVEESYDLKDTLRTMGMVDIFNGDADLSGMTGSRGLVLSGVLHKAFVEVTEEGAEAAAATAVVGFGSSPTSTNEEFHCNHPFLFFIRQNKTNSILFYGRFSSP
B4: STAT1 (protein)
chain: SQWYELQQLDSKFLEQVHQLYDDSFPMEIRQYLAQWLEKQDWEHAANDVSFATIRFHDLLSQLDDQYSRFSLENNFLLQHNIRKSKRNLQDNFQEDPIQMSMIIYSCLKEERKILENAQRFNQAQSGNIQSTVMLDKQKELDSKVRNVKDKVMCIEHEIKSLEDLQDEYDFKCKTLQNREHETNGVAKSDQKQEQLLLKKMYLMLDNKRKEVVHKIIELLNVTELTQNALINDELVEWKRRQQSACIGGPPNACLDQLQNWFTIVAESLQQVRQQLKKLEELEQKYTYEHDPITKNKQVLWDRTFSLFQQLIQSSFVVERQPCMPTHPQRPLVLKTGVQFTVKLRLLVKLQELNYNLKVKVLFDKDVNERNTVKGFRKFNILGTHTKVMNMEESTNGSLAAEFRHLQLKEQKNAGTRTNEGPLIVTEELHSLSFETQLCQPGLVIDLETTSLPVVVISNVSQLPSGWASILWYNMLVAEPRNLSFFLTPPCARWAQLSEVLSWQFSSVTKRGLNVDQLNMLGEKLLGPNASPDGLIPWTRFCKENINDKNFPFWLWIESILELIKKHLLPLWNDGCIMGFISKERERALLKDQQPGTFLLRFSESSREGAITFTWVERSQNGGEPDFHAVEPYTKKELSAVTFPDIIRNYKVMAAENIPENPLKYLYPNIDKDHAFGKYYSRPKEAPEPMELDGPKGTGYIKTELISVSEVHPSRLQTTDNLLPMSPEEFDEVSRIVGSVEFDSMMNTV
B5: USP11 (protein)
chain: MAVAPRLFGGLCFRFRDQNPEVAVEGRLPISHSCVGCRRERTAMATVAANPAAAAAAVAAAAAVTEDREPQHEELPGLDSQWRQIENGESGRERPLRAGESWFLVEKHWYKQWEAYVQGGDQDSSTFPGCINNATLFQDEINWRLKEGLVEGEDYVLLPAAAWHYLVSWYGLEHGQPPIERKVIELPNIQKVEVYPVELLLVRHNDLGKSHTVQFSHTDSIGLVLRTARERFLVEPQEDTRLWAKNSEGSLDRLYDTHITVLDAALETGQLIIMETRKKDGTWPSAQLHVMNNNMSEEDEDFKGQPGICGLTNLGNTCFMNSALQCLSNVPQLTEYFLNNCYLEELNFRNPLGMKGEIAEAYADLVKQAWSGHHRSIVPHVFKNKVGHFASQFLGYQQHDSQELLSFLLDGLHEDLNRVKKKEYVELCDAAGRPDQEVAQEAWQNHKRRNDSVIVDTFHGLFKSTLVCPDCGNVSVTFDPFCYLSVPLPISHKRVLEVFFIPMDPRRKPEQHRLVVPKKGKISDLCVALSKHTGISPERMMVADVFSHRFYKLYQLEEPLSSILDRDDIFVYEVSGRIEAIEGSREDIVVPVYLRERTPARDYNNSYYGLMLFGHPLLVSVPRDRFTWEGLYNVLMYRLSRYVTKPNSDDEDDGDEKEDDEEDKDDVPGPSTGGSLRDPEPEQAGPSSGVTNRCPFLLDNCLGTSQWPPRRRRKQLFTLQTVNSNGTSDRTTSPEEVHAQPYIAIDWEPEMKKRYYDEVEAEGYVKHDCVGYVMKKAPVRLQECIELFTTVETLEKENPWYCPSCKQHQLATKKLDLWMLPEILIIHLKRFSYTKFSREKLDTLVEFPIRDLDFSEFVIQPQNESNPELYKYDLIAVSNHYGGMRDGHYTTFACNKDSGQWHYFDDNSVSPVNENQIESKAAYVLFYQRQDVARRLLSPAGSSGAPASPACSSPPSSEFMDVN
B6: IGF2BP2 (protein)
chain: MMNKLYIGNLSPAVTADDLRQLFGDRKLPLAGQVLLKSGYAFVDYPDQNWAIRAIETLSGKVELHGKIMEVDYSVSKKLRSRKIQIRNIPPHLQWEVLDGLLAQYGTVENVEQVFAFSLVNTDTETAVVNVTYATREEAKIAMEKLSGHQFENYSFKISYIPDEEVSSPSPPQRAQRGDHSSREQGHAPGGTSQARQIDFPLRILVPTQFVGAIIGKEGLTIKNITKQTQSRVDIHRKENSGAAEKPVTIHATPEGTSEACRMILEIMQKEADETKLAEEIPLKILAHNGLVGRLIGKEGRNLKKIEHETGTKITISSLQDLSIYNPERTITVKGTVEACASAEIEIMKKLREAFENDMLAVNQQANLIPGLNLSALGIFSTGLSVLSPPAGPRGAPPAAPYHPFTTHSGYFSSLYPHHQFGPFPHHHSYPEQEIVNLFIPTQAVGAIIGKKGAHIKQLARFAGASIKIAPAEGPDVSERMVIITGPPEAQFKAQGRIFGKLKEENFFNPKEEVKLEAHIRVPSSTAGRVIGKGGKTVNELQNLTSAEVIVPRDQTPDENEEVIVRIIGHFFASQTAQRKIREIVQQVKQQEQKYPQGVASQRSK

These molecules were tested on proteins that co-immunoprecipitated with DUX4-CTD constructs expressed in MB135 myoblasts (assay: LC-MS of proteins co-immunoprecipitated with DUX4-CTD (Table 1) and western validation). Settings: LC-MS value per protein co-immunoprecipitated from MB135 myoblasts; + IFNG mix sample (no Dox); kind of count not given.
Type: binding, human
Set-up: key to 4. mL1dL2 + Dox + IFNG / 4. + IFNG mix / 4. longCTD + Dox + IFNG / 3. + IFNg + Dox longCTD / 3. + Dox longCTD / 3. + IFNG longCTD: peptide-spectrum matches (PSMs) per protein
Source text: As an unbiased method to identify proteins that interact with the C-terminal region of DUX4, liquid chromatography mass spectroscopy (LC-MS) was used to identify proteins that co-immunoprecipitated with DUX4-CTD constructs expressed in MB135 myoblasts. In the first experiment, MB135iDUX4-CTD cells were used, either untreated, treated with doxycycline alone, or with both doxycycline and IFNG. In the second experiment, MB135iDUX4-CTD and MB135iDUX4mL1dL2 cells were used, both treated with doxycycline and IFNG, compared to these two cell lines untreated and combined as a control. Proteins with a minimum of 2 peptide spectrum matches (PSMs) in at least one sample that were identified in both experiments were assigned to one of ten categories (see Methods) to separate candidate interactors from other categories that might be co-purified because of obligate interactions (e.g., proteasome or ribosome) or might be less likely to be physiologically relevant (e.g., cytoskeletal proteins). Candidate interactors were then ranked based on the total PSMs for that protein across all samples.
Centrifugation at 2500 rcf at 4° C. for 5 min pelleted the nuclei, supernatant was discarded, and nuclei resuspended in 1 mL IP buffer pH 7.4 (25 mM Tris-HCl pH 7.5, 175 mM NaCl, 1 mM EDTA, 0.2% NP-40, 5% glycerol) and incubated for 1 hour at 4° C. with rotation then spun at 21000 rcf for 10 minutes at 4° C. to pellet insoluble debris. Protein concentration was determined using the Pierce BCA Protein Assay Kit (ThermoFisher, 23225). An equivalent amount of protein per sample was pre-cleared with Dynabeads Protein G (Invitrogen) bound to mouse IgG (Abcam #131368) for 1 hour at 4° C. with rotation. FLAG-tagged constructs were then immunoprecipitated with Dynabeads Protein G beads coupled to mouse anti-FLAG M2 mAb (Sigma F3165) for 3 hours at 4° C. with rotation. Beads were washed 3× with 1 mL IP buffer and eluted by adding 2× NuPage LDS Sample Buffer (Thermo Fisher, diluted from 4× with PBS) to the beads and heating for 10 minutes at 70° C.
For LC-MS, anti-FLAG immunoprecipitation was performed with beads cross-linked to the anti-FLAG antibody and the proteins competitively eluted with FLAG peptide. Eluted protein samples were electrophoresed into a NuPage 4-12% Bis-Tris gel, excised, and processed by the Fred Hutchinson Cancer Research Center Proteomics Core. Samples were reduced, alkylated, digested with trypsin, desalted, and run on the Orbitrap Eclipse Tribid Mass Spectrometer (Thermo Fisher). Proteomics data were analyzed using Proteome Discoverer 2.4 against a Uniprot human database that included common contaminants using Sequest HT and Percolator for scoring. […] Proteins that were identified in at least one sample from both independent experiments with at least 2 PSMs in one sample were assigned to one of ten categories: 1, candidates; 2, cytoskeletal associated; 3, cytoskeletal; 4, ribosome/translation associated; 5, proteasome associated; 6, membrane or extracellular; ER, golgi, or vesicle associated; 8, lipid metabolism; 9, chaperones; 10, nuclear import or nuclear membrane associated. The proteins in category 1 were further investigated for interactions with DUX4.

Molecule | 4. + IFNG mix
B1 | 1
B2 | 24
B3 | 2
B4 | 3

Same assay, conditions: LC-MS value per protein co-immunoprecipitated with DUX4-CTD construct mL1dL2 in MB135 myoblasts; + Dox + IFNG; kind of count not given

Molecule | 4. mL1dL2 + Dox + IFNG
B1 | 1
B2 | 19
B5 | 1
B4 | 18
B6 | 1
